Measured values as given in patent US8445431.
No end group written: not given here.

What was measured:
[1] = target: recombinant isoform of human Angiotensin Converting Enzyme (rhACE) corresponding to the ectodomain somatic ACE (human), P12821; assay: cell-based or functional assay
[2] = target: recombinant isoform of human Angiotensin Converting Enzyme (rhACE) corresponding to the ectodomain somatic ACE (human) (UniProt P12821); assay: cell-based or functional assay
[3] = target: recombinant isoform of human Angiotensin Converting Enzyme (rhACE) corresponding to the ectodomain somatic ACE (human) (UniProt P12821); assay: Enzyme inhibition of rhACE with fluorogenic substrate, Dixon plot and KI=IC50/(1+[S]/Km); 45 min pre-incubation, hydrolytic conditions

Sequence of recombinant isoform of human Angiotensin Converting Enzyme (rhACE) corresponding to the ectodomain somatic ACE (human), P12821 (P12821 30-1256): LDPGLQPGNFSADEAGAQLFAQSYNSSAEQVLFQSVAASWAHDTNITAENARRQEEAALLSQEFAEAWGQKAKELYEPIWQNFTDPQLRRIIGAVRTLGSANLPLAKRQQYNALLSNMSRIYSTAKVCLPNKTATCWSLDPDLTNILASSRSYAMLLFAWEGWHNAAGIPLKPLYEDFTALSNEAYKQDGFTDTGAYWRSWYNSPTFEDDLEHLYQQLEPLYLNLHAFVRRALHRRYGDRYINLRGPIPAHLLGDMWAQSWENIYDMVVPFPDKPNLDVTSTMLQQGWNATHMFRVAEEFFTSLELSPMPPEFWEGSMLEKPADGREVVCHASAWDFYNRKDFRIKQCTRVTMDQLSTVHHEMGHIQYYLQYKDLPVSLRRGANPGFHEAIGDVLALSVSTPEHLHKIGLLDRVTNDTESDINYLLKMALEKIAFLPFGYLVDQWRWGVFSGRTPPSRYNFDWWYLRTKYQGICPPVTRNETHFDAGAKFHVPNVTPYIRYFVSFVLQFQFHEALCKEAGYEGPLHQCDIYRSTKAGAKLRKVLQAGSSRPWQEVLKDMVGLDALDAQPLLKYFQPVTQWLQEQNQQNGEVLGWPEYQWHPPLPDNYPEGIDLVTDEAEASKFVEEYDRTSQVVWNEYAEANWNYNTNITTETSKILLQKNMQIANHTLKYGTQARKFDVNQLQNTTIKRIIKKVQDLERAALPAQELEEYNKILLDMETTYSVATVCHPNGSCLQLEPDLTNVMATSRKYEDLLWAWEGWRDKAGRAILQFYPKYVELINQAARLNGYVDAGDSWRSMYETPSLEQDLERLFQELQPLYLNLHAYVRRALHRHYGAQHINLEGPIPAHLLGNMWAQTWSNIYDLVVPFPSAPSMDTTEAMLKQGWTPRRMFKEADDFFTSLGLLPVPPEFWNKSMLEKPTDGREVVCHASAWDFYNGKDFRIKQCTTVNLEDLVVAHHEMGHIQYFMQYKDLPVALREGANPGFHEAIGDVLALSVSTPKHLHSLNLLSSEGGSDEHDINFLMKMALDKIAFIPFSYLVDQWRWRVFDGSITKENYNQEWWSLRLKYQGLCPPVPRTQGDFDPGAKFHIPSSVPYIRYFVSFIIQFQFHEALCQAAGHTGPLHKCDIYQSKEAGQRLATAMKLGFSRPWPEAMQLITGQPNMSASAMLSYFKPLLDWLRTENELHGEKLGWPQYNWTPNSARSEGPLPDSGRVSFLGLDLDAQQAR
Sequence of recombinant isoform of human Angiotensin Converting Enzyme (rhACE) corresponding to the ectodomain somatic ACE (human) (P12821 30-1256): as above

## KGHK [LysGlyHisLys (KGHK) peptide, metal-free]
[1]
  IC50 of rhACE inhibition (fluorogenic substrate cleavage): > 100 µM

## YIHPF [TyrIleHisProPhe (YIHPF, Angiotensin II 4-8) peptide, metal-free]
[1]
  IC50 of rhACE inhibition (fluorogenic substrate cleavage): > 100 µM

## Gly-Gly-His (also: Cu(II) complex bound by ATCUN motif) [[GGH-Cu]- copper(II) complex of GGH]
[1]
  IC50 of rhACE inhibition (fluorogenic substrate cleavage): > 100 µM

## YIHPF (also: Cu(II) complex bound by ATCUN motif) [[YIHPF-Cu]- copper(II) complex of YIHPF]
[1]
  IC50 of rhACE inhibition (fluorogenic substrate cleavage): > 100 µM

## GGH [GlyGlyHis (GGH) peptide, metal-free]
[1]
  IC50 of rhACE inhibition (fluorogenic substrate cleavage): > 100 µM

## KGHK (also: Cu(II) complex bound by ATCUN motif (free N-term, two peptide N, His3)) [[KGHK-Cu]+ copper(II) complex of KGHK]
[2]
  IC50 of rhACE inhibition (fluorogenic substrate cleavage): 11 µM
[3]
  Ki: 4 µM
